# Results reported in patent EP2842965A1, “Neuromedin U analogs comprising serum albumin binding amino acid residue” (Gubra ApS, priority 2013, dated 2015).
# Starred links: 1 amine or outer side, 2 acyl side, 3 side chain; linkers in the order of their positions; H or OH if unused. Residues, ends and D or L forms follow the SMILES beside them. Groups on a side chain read outwards from the residue. No end group written: not given here. *: point of attachment. γGlu = O=C(O)[C@H](CCC(=O)[*:2])N[*:1]; Palmitoyl = CCCCCCCCCCCCCCCC(=O)*
# T1: Neuromedin U receptor 1 (UniProt Q9HB89 1-426, limits assumed)
# T1 sequence (looked up): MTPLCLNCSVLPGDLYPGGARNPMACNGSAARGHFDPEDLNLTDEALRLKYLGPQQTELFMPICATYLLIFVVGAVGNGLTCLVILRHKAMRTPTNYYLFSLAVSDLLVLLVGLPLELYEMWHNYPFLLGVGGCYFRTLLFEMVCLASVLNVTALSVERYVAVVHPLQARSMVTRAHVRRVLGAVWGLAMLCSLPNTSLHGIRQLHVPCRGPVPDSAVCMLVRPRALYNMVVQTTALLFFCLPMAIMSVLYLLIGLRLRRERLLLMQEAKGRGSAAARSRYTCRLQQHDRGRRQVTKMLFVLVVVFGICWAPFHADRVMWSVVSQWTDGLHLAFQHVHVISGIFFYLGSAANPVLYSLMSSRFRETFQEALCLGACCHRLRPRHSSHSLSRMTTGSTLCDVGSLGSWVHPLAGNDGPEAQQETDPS
# Target: T2, Neuromedin U receptor 2 (NMUR2) (Homo sapiens, UniProt Q9GZQ4)
# T2 construct: expressed in transfected cells; host or cells: HEK293 cells, transient calcium phosphate transfection; the empty-vector control is pcDNA3
# Test: Functional assay (IP3 SPA-ysi assay) in HEK293 cells transfected with NMUR2
# Assay type: cell-based
# Settings: HEK293 cells transiently transfected with NMUR2; head says cAMP, method describes IP3 SPA readout
# Protocol: All compounds were dissolved in dimethyl sulfoxide (DMSO), and then water was added (total DMSO conc. was 80%). The stock concentration was 1 mM for all the compounds. Stocks were alliquoted and frozen -20°C.
# The day before each assay a new standard row was prepared by dilution of the stock solution in assay buffer (1 mM acetic acid + 0.1% bovine serum albumin (BSA)). The following concentrations were prepared (depending on the ligand potency): 10^-5, 10^-6, 10^-7, 10^-7.5, 10^-8, 10^-8.5, 10^-9, 10^-10, 10^-11, 10^-12 M.
# Cell cultures: The HEK293 cells are grown in (DMEM31966 glutamax supplemented with 10% FBS (fetal bovine serum) and 1% penicillin G and streptomycin) and incubated at 37°C with 10% CO2 in a humidified atmosphere. The cells were split as follows. HEK293 cells approximately 80% confluent was used. The cells were removed from the bottom of the bottle by removing the media (DMEM31966 glutamax supplemented with 10% FBS and 1% penicillin G and streptomycin), rinsed with 5 mL phosphate buffered saline (PBS) and shaken gently. The PBS was removed and cells were released from the bottom with trypsin (1-2 mL) and incubated for 2-3 min. The flasks were then turned gently to ensure complete release of the cells from the bottom. Then media was added to the cells, (5-8 mL was used to rinse the cells of the bottom, this process was repeated approximately 4 times using the same media). Cell suspension was then transferred to a new bottle (approximately 4 × 10^6 cells per 175 cm^2 flask) and 20 mL media was added. Cells were incubated at 37°C with 10% CO2 in a humidified atmosphere.
# Transfection of cells: HEK293 cells were seeded out at the density of 8 × 10^6 cells per 175 cm^2 flask 1 day prior to the transfection. Before transfection of cells, the culture medium was aspirated and half of the standard volume was added. 40 µg receptor-containing plasmid (Neuromedin U receptor 1 (NMUR1) or Neuromedin U receptor 2 (NMUR2)) or "empty" vector plasmid (pcDNA3), as a negative control, was mixed with 60 µL […] CaCl2 and Tris-EDTA (TE) buffer (10 mM tris(hydroxymethyl)aminomethane hydrochloride (Tris HCl), 1 mM ethylenedinitrilotetraacetic acid (EDTA), pH 7.5) to a total volume of 480 µL. The mixture was added drop-wise to another tube containing 480 µL 2 × HEPES buffered saline (HBS buffer) (280 mM NaCl, 50 mM 4-(2-Hydroxyethyl)piperazine-1-ethanesulfonic acid (HEPES), 1.5 mM NaHPO4, pH 7.2) and left for 45 min at room temperature for DNA precipitation. Afterwards, the precipitate was added carefully to the cells and cells were incubated for 5 hours at normal culture conditions. The transfection was stopped by change of the DNA-containing medium with 20 mL of fresh cell culture medium.
# Seeding of the cells in 96 well plates: One day after transfection, cells were harvested using trypsin as described above. The cells were seeded in a poly-D-lysine coated clear 96 well plate. 100 µL cell suspension 350.000 cells/mL was added. 3H-myo-inositol (5µL/mL) was added to each well yielding a concentration of 35000 cells/well. The cells were incubated overnight before assay procedure the following day.
# IP3 SPA-ysi assay: The media was removed and the plates were washed with 200 µL of Hank's balanced salt solution (HBSS) (Gibco, Life Technologies). 100 µL of HBSS/10 mM LiCl was added and the plates were incubated 15 min at 37°C. 5 µL ligand was added to each well and the plate was incubated at 37°C for 70-90 min (incubation time was approximately 1 h and 16 min for all plates). The plates were placed on ice and 50 µL formic acid (10 mM) was added to each well. The plates was left on ice for at least 30 min. 20 µL was then transferred to a white 96 well plate and 80 µL yttrium silicate (YSi) SPA-beads RPNQ0010 (Perkin Elmer) solution (0.0125 g/mL) is added to each well. The plates were sealed and shaken on high speed for 30 min, then centrifuged for 5 min at 1500 rpm and counted with 8 hours delay in the top counter. […]
# T2 sequence (Q9GZQ4 whole entry): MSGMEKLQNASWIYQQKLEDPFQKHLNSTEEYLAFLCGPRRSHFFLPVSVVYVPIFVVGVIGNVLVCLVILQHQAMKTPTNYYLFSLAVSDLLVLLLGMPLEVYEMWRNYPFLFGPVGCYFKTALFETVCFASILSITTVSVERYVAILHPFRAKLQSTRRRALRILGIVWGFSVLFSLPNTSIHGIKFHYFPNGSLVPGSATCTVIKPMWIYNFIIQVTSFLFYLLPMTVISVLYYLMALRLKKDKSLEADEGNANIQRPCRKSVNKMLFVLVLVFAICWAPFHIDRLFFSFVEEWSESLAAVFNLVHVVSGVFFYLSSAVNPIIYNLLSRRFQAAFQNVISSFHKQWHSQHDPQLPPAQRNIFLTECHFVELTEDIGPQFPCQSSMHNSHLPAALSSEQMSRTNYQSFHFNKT
row,EC50,Molecule
1,4.26 nM,"H-FRVDEEFQSPFASQSRGYFLFRPRN-NH2 [Human NMU, reference compound]"
2,94.3 nM,CCCCCCCCCCCCCCCC(=O)N[C@@H](CCC(=O)NCCCC[C@H](NC(=O)[C@H](CCC(N)=O)NC(=O)[C@H](Cc1ccccc1)NC(=O)[C@H](CCC(=O)O)NC(=O)[C@H](CCC(=O)O)NC(=O)[C@H](CC(=O)O)NC(=O)[C@@H](NC(=O)[C@H](CCCNC(=N)N)NC(=O)[C@@H](N)Cc1ccccc1)C(C)C)C(=O)N1CCC[C@H]1C(=O)N[C@@H](Cc1ccccc1)C(=O)N[C@@H](C)C(=O)N[C@@H](CO)C(=O)N[C@@H](CCC(N)=O)C(=O)N[C@@H](CO)C(=O)N[C@@H](CCCNC(=N)N)C(=O)NCC(=O)N[C@@H](Cc1ccc(O)cc1)C(=O)N[C@@H](Cc1ccccc1)C(=O)N[C@@H](CC(C)C)C(=O)N[C@@H](Cc1ccccc1)C(=O)N[C@@H](CCCNC(=N)N)C(=O)N1CCC[C@H]1C(=O)N[C@@H](CCCNC(=N)N)C(=O)N[C@@H](CC(N)=O)C(N)=O)C(=O)O [SEQ ID NO 11] (H-FRVDEEFQK([γGlu-Palmitoyl])PFASQSRGYFLFRPRN-NH2)

# Target: T1, Neuromedin U receptor 1
# Test: cell-based or functional assay
# Settings: not given
row,NMUR1 cAMP EC50,Molecule
1,51.5 nM,FRVDEK([γGlu-Palmitoyl])FQSPFASQSRGYFLFRPRN-NH2 (N-terminus assumed; SMILES CCCCCCCCCCCCCCCC(=O)N[C@@H](CCC(=O)NCCCC[C@H](NC(=O)[C@H](CCC(=O)O)NC(=O)[C@H](CC(=O)O)NC(=O)[C@@H](NC(=O)[C@H](CCCNC(=N)N)NC(=O)[C@@H](N)Cc1ccccc1)C(C)C)C(=O)N[C@@H](Cc1ccccc1)C(=O)N[C@@H](CCC(N)=O)C(=O)N[C@@H](CO)C(=O)N1CCC[C@H]1C(=O)N[C@@H](Cc1ccccc1)C(=O)N[C@@H](C)C(=O)N[C@@H](CO)C(=O)N[C@@H](CCC(N)=O)C(=O)N[C@@H](CO)C(=O)N[C@@H](CCCNC(=N)N)C(=O)NCC(=O)N[C@@H](Cc1ccc(O)cc1)C(=O)N[C@@H](Cc1ccccc1)C(=O)N[C@@H](CC(C)C)C(=O)N[C@@H](Cc1ccccc1)C(=O)N[C@@H](CCCNC(=N)N)C(=O)N1CCC[C@H]1C(=O)N[C@@H](CCCNC(=N)N)C(=O)N[C@@H](CC(N)=O)C(N)=O)C(=O)O) [SEQ ID NO 14 (NMU analog acylated at K6)]
2,195 nM,FRVDEEFQSPFASQK([γGlu-Palmitoyl])RGYFLFRPRN-NH2 (N-terminus assumed; SMILES CCCCCCCCCCCCCCCC(=O)N[C@@H](CCC(=O)NCCCC[C@H](NC(=O)[C@H](CCC(N)=O)NC(=O)[C@H](CO)NC(=O)[C@H](C)NC(=O)[C@H](Cc1ccccc1)NC(=O)[C@@H]1CCCN1C(=O)[C@H](CO)NC(=O)[C@H](CCC(N)=O)NC(=O)[C@H](Cc1ccccc1)NC(=O)[C@H](CCC(=O)O)NC(=O)[C@H](CCC(=O)O)NC(=O)[C@H](CC(=O)O)NC(=O)[C@@H](NC(=O)[C@H](CCCNC(=N)N)NC(=O)[C@@H](N)Cc1ccccc1)C(C)C)C(=O)N[C@@H](CCCNC(=N)N)C(=O)NCC(=O)N[C@@H](Cc1ccc(O)cc1)C(=O)N[C@@H](Cc1ccccc1)C(=O)N[C@@H](CC(C)C)C(=O)N[C@@H](Cc1ccccc1)C(=O)N[C@@H](CCCNC(=N)N)C(=O)N1CCC[C@H]1C(=O)N[C@@H](CCCNC(=N)N)C(=O)N[C@@H](CC(N)=O)C(N)=O)C(=O)O) [SEQ ID NO 5 (NMU analog acylated at K15)]
3,2.57 nM,FRVDEEFQSPFASQSRGYFLFRPRN-NH2 [Human neuromedin U]
4,74 nM,FRVDEEFQK([γGlu-Palmitoyl])PFASQSRGYFLFRPRN-NH2 (N-terminus assumed; SMILES CCCCCCCCCCCCCCCC(=O)N[C@@H](CCC(=O)NCCCC[C@H](NC(=O)[C@H](CCC(N)=O)NC(=O)[C@H](Cc1ccccc1)NC(=O)[C@H](CCC(=O)O)NC(=O)[C@H](CCC(=O)O)NC(=O)[C@H](CC(=O)O)NC(=O)[C@@H](NC(=O)[C@H](CCCNC(=N)N)NC(=O)[C@@H](N)Cc1ccccc1)C(C)C)C(=O)N1CCC[C@H]1C(=O)N[C@@H](Cc1ccccc1)C(=O)N[C@@H](C)C(=O)N[C@@H](CO)C(=O)N[C@@H](CCC(N)=O)C(=O)N[C@@H](CO)C(=O)N[C@@H](CCCNC(=N)N)C(=O)NCC(=O)N[C@@H](Cc1ccc(O)cc1)C(=O)N[C@@H](Cc1ccccc1)C(=O)N[C@@H](CC(C)C)C(=O)N[C@@H](Cc1ccccc1)C(=O)N[C@@H](CCCNC(=N)N)C(=O)N1CCC[C@H]1C(=O)N[C@@H](CCCNC(=N)N)C(=O)N[C@@H](CC(N)=O)C(N)=O)C(=O)O) [SEQ ID NO 11 (NMU analog acylated at K9)]
5,45.5 nM,FRVK([γGlu-Palmitoyl])EEFQSPFASQSRGYFLFRPRN-NH2 (N-terminus assumed; SMILES CCCCCCCCCCCCCCCC(=O)N[C@@H](CCC(=O)NCCCC[C@H](NC(=O)[C@@H](NC(=O)[C@H](CCCNC(=N)N)NC(=O)[C@@H](N)Cc1ccccc1)C(C)C)C(=O)N[C@@H](CCC(=O)O)C(=O)N[C@@H](CCC(=O)O)C(=O)N[C@@H](Cc1ccccc1)C(=O)N[C@@H](CCC(N)=O)C(=O)N[C@@H](CO)C(=O)N1CCC[C@H]1C(=O)N[C@@H](Cc1ccccc1)C(=O)N[C@@H](C)C(=O)N[C@@H](CO)C(=O)N[C@@H](CCC(N)=O)C(=O)N[C@@H](CO)C(=O)N[C@@H](CCCNC(=N)N)C(=O)NCC(=O)N[C@@H](Cc1ccc(O)cc1)C(=O)N[C@@H](Cc1ccccc1)C(=O)N[C@@H](CC(C)C)C(=O)N[C@@H](Cc1ccccc1)C(=O)N[C@@H](CCCNC(=N)N)C(=O)N1CCC[C@H]1C(=O)N[C@@H](CCCNC(=N)N)C(=O)N[C@@H](CC(N)=O)C(N)=O)C(=O)O) [SEQ ID NO 17 (NMU analog acylated at K4)]
6,114 nM,FRVDEEFQSPFAK([γGlu-Palmitoyl])QSRGYFLFRPRN-NH2 (N-terminus assumed; SMILES CCCCCCCCCCCCCCCC(=O)N[C@@H](CCC(=O)NCCCC[C@H](NC(=O)[C@H](C)NC(=O)[C@H](Cc1ccccc1)NC(=O)[C@@H]1CCCN1C(=O)[C@H](CO)NC(=O)[C@H](CCC(N)=O)NC(=O)[C@H](Cc1ccccc1)NC(=O)[C@H](CCC(=O)O)NC(=O)[C@H](CCC(=O)O)NC(=O)[C@H](CC(=O)O)NC(=O)[C@@H](NC(=O)[C@H](CCCNC(=N)N)NC(=O)[C@@H](N)Cc1ccccc1)C(C)C)C(=O)N[C@@H](CCC(N)=O)C(=O)N[C@@H](CO)C(=O)N[C@@H](CCCNC(=N)N)C(=O)NCC(=O)N[C@@H](Cc1ccc(O)cc1)C(=O)N[C@@H](Cc1ccccc1)C(=O)N[C@@H](CC(C)C)C(=O)N[C@@H](Cc1ccccc1)C(=O)N[C@@H](CCCNC(=N)N)C(=O)N1CCC[C@H]1C(=O)N[C@@H](CCCNC(=N)N)C(=O)N[C@@H](CC(N)=O)C(N)=O)C(=O)O) [SEQ ID NO 8 (NMU analog acylated at K13)]
